The data set concerns the molecule itself. Kind of data set: SEC.

B1: (S)-2-hydroxypropylphosphonic acid epoxidase from Pseudomonas syringae (enzyme, Pseudomonas syringae PB-5123, UniProt Q9JN69 1-190, looked up)
chain: MDVRTLAVGKAHLEALLATRKMTLEHLQDVRHDATQVYFDGLEHLQNVAQYLAIPLSEFFVGQTQSDLDDGVKIARRNGGFKREEIRGGVHYYTYEHLVTTNQDPGLMALRLDLHSDDEQPLRLNGGHGSREIVYVTRGAVRVRWVGDNDELKEDVLNEGDSIFILPNVPHSFTNHVGGAKSEIIAINYG
modifications: Tyr95 highly likely post-translationally hydroxylated to DOPA
With B1, the “stoichiometry N” value was determined as 3.

Values taken from PMC2780581 (Biochemistry, 2008).
